B1: NRC3_wobSeed137_DR5_G21A_o1 (dsDNA)
DNA 1: GCATATGTAGGTTACATCCGAGTCATTCAGGCTATGGCGATTGACAGCGTAGAATGAAGG
DNA 2: CCTTCATTCTACGCTGTCAATCGCCATAGCCTGAATGACTCGGATGTAACCTACATATGC
B2: NRC3_wobSeed72_DR2_G16T_o1 (dsDNA)
DNA 1: GCTCGAGTAGGTTACTGGGGCATTCAGGGATGAAGAGCGATTGACAGCGTAGAATGAAGG
DNA 2: CCTTCATTCTACGCTGTCAATCGCTCTTCATCCCTGAATGCCCCAGTAACCTACTCGAGC
B3: NRC3_wobSeed72_DR2_G17C_o1 (dsDNA)
DNA 1: GCTCGAGTAGGTTACGCGGGCATTCAGGGATGAAGAGCGATTGACAGCGTAGAATGAAGG
DNA 2: CCTTCATTCTACGCTGTCAATCGCTCTTCATCCCTGAATGCCCGCGTAACCTACTCGAGC
B4: NRC3_random_hg19_342_o1 (dsDNA)
DNA 1: GCATCGGGAGTGATGATAAGTAAGGCAAGCCCTGTTGCGATTGACAGCGTAGAATGAAGG
DNA 2: CCTTCATTCTACGCTGTCAATCGCAACAGGGCTTGCCTTACTTATCATCACTCCCGATGC
B5: NRC3_random_hg19_338_o1 (dsDNA)
DNA 1: GCACACAGAGAAACTCTTGCCAGTAGCAGTAGTACCGCGATTGACAGCGTAGAATGAAGG
DNA 2: CCTTCATTCTACGCTGTCAATCGCGGTACTACTGCTACTGGCAAGAGTTTCTCTGTGTGC
B6: NRC3_random_hg19_56_o1 (dsDNA)
DNA 1: GCTGTGCCTTCTGCACAAGGTAGGTCTACATCCACTGCGATTGACAGCGTAGAATGAAGG
DNA 2: CCTTCATTCTACGCTGTCAATCGCAGTGGATGTAGACCTACCTTGTGCAGAAGGCACAGC
B7: NRC3_random_hg19_343_o1 (dsDNA)
DNA 1: GCCCTGGAGTGTCACTTAGCCACATTCTATTGGCCAGCGATTGACAGCGTAGAATGAAGG
DNA 2: CCTTCATTCTACGCTGTCAATCGCTGGCCAATAGAATGTGGCTAAGTGACACTCCAGGGC
B8: NRC3_wobSeed58_DR2_T12G_o1 (dsDNA)
DNA 1: GCATCGAAAGGGCGTGAGGTGAGTATACAGAAAGGCGCGATTGACAGCGTAGAATGAAGG
DNA 2: CCTTCATTCTACGCTGTCAATCGCGCCTTTCTGTATACTCACCTCACGCCCTTTCGATGC
B9: NRC3_wobSeed28_DR1_A21T_o1 (dsDNA)
DNA 1: GCCCTACTGGGCCAAAGGTCTTTGATTCCAATGCTCGCGATTGACAGCGTAGAATGAAGG
DNA 2: CCTTCATTCTACGCTGTCAATCGCGAGCATTGGAATCAAAGACCTTTGGCCCAGTAGGGC
B10: NRC3_random_hg19_147_o1 (dsDNA)
DNA 1: GCCTCTTGCTCCCTATTGGTCTATTGCACTGCAGAGGCGATTGACAGCGTAGAATGAAGG
DNA 2: CCTTCATTCTACGCTGTCAATCGCCTCTGCAGTGCAATAGACCAATAGGGAGCAAGAGGC
B11: NRC3_wobSeed53_DR2_T12C_o1 (dsDNA)
DNA 1: GCCCTTACGGGCCACGAGGTTATAGCACGACGAGCGGCGATTGACAGCGTAGAATGAAGG
DNA 2: CCTTCATTCTACGCTGTCAATCGCCGCTCGTCGTGCTATAACCTCGTGGCCCGTAAGGGC
B12: NRC3_wobSeed18_DR0_T12G_o1 (dsDNA)
DNA 1: GCGATACAGGGGCAAGGCCAGAGTACGCGTATTGATGCGATTGACAGCGTAGAATGAAGG
DNA 2: CCTTCATTCTACGCTGTCAATCGCATCAATACGCGTACTCTGGCCTTGCCCCTGTATCGC
B13: NRC3_random_hg19_463_o1 (dsDNA)
DNA 1: GCCAGGGAGAGAGCCTTGCAAAGATGGAACAATCAGGCGATTGACAGCGTAGAATGAAGG
DNA 2: CCTTCATTCTACGCTGTCAATCGCCTGATTGTTCCATCTTTGCAAGGCTCTCTCCCTGGC
B14: NRC3_wobSeed141_DR5_C6G_o1 (dsDNA)
DNA 1: GCAGTGAAAGTTCAGGACGAGGTAACGTAAAGCACGGCGATTGACAGCGTAGAATGAAGG
DNA 2: CCTTCATTCTACGCTGTCAATCGCCGTGCTTTACGTTACCTCGTCCTGAACTTTCACTGC
B15: NRC3_random_hg19_215_o1 (dsDNA)
DNA 1: GCTGTGGTCCCAAACACCTCAAGCATGACAATGCGTGCGATTGACAGCGTAGAATGAAGG
DNA 2: CCTTCATTCTACGCTGTCAATCGCACGCATTGTCATGCTTGAGGTGTTTGGGACCACAGC
B16: NRC3_random_hg19_208_o1 (dsDNA)
DNA 1: GCAAGAGAGAGACACAATGGCTAAAGAAGGAAGAGTGCGATTGACAGCGTAGAATGAAGG
DNA 2: CCTTCATTCTACGCTGTCAATCGCACTCTTCCTTCTTTAGCCATTGTGTCTCTCTCTTGC
B17: NRC3_wobSeed65_DR2_T12A_o1 (dsDNA)
DNA 1: GCATATGTAGGATATCGGGTCATTCAGTTTGCGCATGCGATTGACAGCGTAGAATGAAGG
DNA 2: CCTTCATTCTACGCTGTCAATCGCATGCGCAAACTGAATGACCCGATATCCTACATATGC
B18: NRC3_wobSeed93_DR3_A14T_o1 (dsDNA)
DNA 1: GCAGTCAAAGTTCTTCTAGGTAACGTAAGATATGCTGCGATTGACAGCGTAGAATGAAGG
DNA 2: CCTTCATTCTACGCTGTCAATCGCAGCATATCTTACGTTACCTAGAAGAACTTTGACTGC
B19: NRC3_wobSeed117_DR4_A9C_o1 (dsDNA)
DNA 1: GCCGTCAACGTTCAACTAAGGTAACGTAAAGCACGCGCGATTGACAGCGTAGAATGAAGG
DNA 2: CCTTCATTCTACGCTGTCAATCGCGCGTGCTTTACGTTACCTTAGTTGAACGTTGACGGC
B20: NRC3_random_hg19_246_o1 (dsDNA)
DNA 1: GCCTCCAGACTGCCTTCAGATTCAAGACGCAAAGGCGCGATTGACAGCGTAGAATGAAGG
DNA 2: CCTTCATTCTACGCTGTCAATCGCGCCTTTGCGTCTTGAATCTGAAGGCAGTCTGGAGGC
B21: NRC3_wobSeed99_DR4_C23G_o1 (dsDNA)
DNA 1: GCTCTCGGAGGACACGAAAGGTGAGAGCTCGACATCGCGATTGACAGCGTAGAATGAAGG
DNA 2: CCTTCATTCTACGCTGTCAATCGCGATGTCGAGCTCTCACCTTTCGTGTCCTCCGAGAGC
B22: NRC3_random_hg19_462_o1 (dsDNA)
DNA 1: GCCTGCTGCTTTCCTGATTACTGTAGCATCAGGTACGCGATTGACAGCGTAGAATGAAGG
DNA 2: CCTTCATTCTACGCTGTCAATCGCGTACCTGATGCTACAGTAATCAGGAAAGCAGCAGGC
B23: NRC3_random_hg19_157_o1 (dsDNA)
DNA 1: GCCCAAGATCTTGCCACTGCACTCCAGCCTGGATGAGCGATTGACAGCGTAGAATGAAGG
DNA 2: CCTTCATTCTACGCTGTCAATCGCTCATCCAGGCTGGAGTGCAGTGGCAAGATCTTGGGC
B24: NRC3_random_hg19_42_o1 (dsDNA)
DNA 1: GCTTTGTGTGGGCTGTCATTGGATGCTCTGGTCATGGCGATTGACAGCGTAGAATGAAGG
DNA 2: CCTTCATTCTACGCTGTCAATCGCCATGACCAGAGCATCCAATGACAGCCCACACAAAGC
B25: NRC3_random_hg19_329_o1 (dsDNA)
DNA 1: GCAGGGATGAATAGATCGAAGTTACTGCCCATTCAAGCGATTGACAGCGTAGAATGAAGG
DNA 2: CCTTCATTCTACGCTGTCAATCGCTTGAATGGGCAGTAACTTCGATCTATTCATCCCTGC
B26: NRC3_wobSeed113_DR4_G20C_o1 (dsDNA)
DNA 1: GCATATGTAGGTTAGCTGGCGTCATTCAGACTAGGCGCGATTGACAGCGTAGAATGAAGG
DNA 2: CCTTCATTCTACGCTGTCAATCGCGCCTAGTCTGAATGACGCCAGCTAACCTACATATGC
B27: NRC3_random_hg19_32_o1 (dsDNA)
DNA 1: GCTGTGTCAGACAGGCAAAGCACTTAAGATTTGTGAGCGATTGACAGCGTAGAATGAAGG
DNA 2: CCTTCATTCTACGCTGTCAATCGCTCACAAATCTTAAGTGCTTTGCCTGTCTGACACAGC
B28: NRC3_random_hg19_170_o1 (dsDNA)
DNA 1: GCCTTGCATTGTGGTTTGGATTTGCATTTCCCTAAAGCGATTGACAGCGTAGAATGAAGG
DNA 2: CCTTCATTCTACGCTGTCAATCGCTTTAGGGAAATGCAAATCCAAACCACAATGCAAGGC
B29: NRC3_wobSeed66_DR2_A14G_o1 (dsDNA)
DNA 1: GCAATACAGGGTCGCTAGGCCAGAGTAGGTACGAATGCGATTGACAGCGTAGAATGAAGG
DNA 2: CCTTCATTCTACGCTGTCAATCGCATTCGTACCTACTCTGGCCTAGCGACCCTGTATTGC
B30: NRC3_wobSeed2_DR0_C19A_o1 (dsDNA)
DNA 1: GCCCTAGTTGGTCAAGGTAACACACGCTATAGGTACGCGATTGACAGCGTAGAATGAAGG
DNA 2: CCTTCATTCTACGCTGTCAATCGCGTACCTATAGCGTGTGTTACCTTGACCAACTAGGGC

For the first data set, the target named is PXR:RXRa (Homo sapiens, UniProt O75469;P19793 full;full). In words: no ligand; PBM; 270 nM : 90 nM RXRa; PBS pH 7.4, 2% milk, 0.02% Triton X-100, 1 mM DTT, BSA, 0.4 mg/ml salmon testes DNA. Conditions: tags: His kept;His cleaved; copies: 1;1; label: surface-attached array probe. An outline of the steps: (§1)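 The probes on custom Agilent 4×180K protein-binding microarrays were double-stranded, with 34-nt variable regions bearing direct-repeat seeds, single-nucleotide variants, half-site ablations and random human genomic background sequences. Incubation lasted 1 h with ligand-free nuclear receptor dimers in PBS pH 7.4, 2% milk, 0.02% Triton X-100, 1 mM DTT, 0.2 mg/mL BSA and 0.4 mg/ml salmon testes DNA. Antibodies against each partner (one per run) detected bound dimers, and fluorescence scans were regression-normalized. Binding z-scores take the random background probes as reference.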
Sequence of PXR:RXRa (O75469 whole entry, chain 1 of 2): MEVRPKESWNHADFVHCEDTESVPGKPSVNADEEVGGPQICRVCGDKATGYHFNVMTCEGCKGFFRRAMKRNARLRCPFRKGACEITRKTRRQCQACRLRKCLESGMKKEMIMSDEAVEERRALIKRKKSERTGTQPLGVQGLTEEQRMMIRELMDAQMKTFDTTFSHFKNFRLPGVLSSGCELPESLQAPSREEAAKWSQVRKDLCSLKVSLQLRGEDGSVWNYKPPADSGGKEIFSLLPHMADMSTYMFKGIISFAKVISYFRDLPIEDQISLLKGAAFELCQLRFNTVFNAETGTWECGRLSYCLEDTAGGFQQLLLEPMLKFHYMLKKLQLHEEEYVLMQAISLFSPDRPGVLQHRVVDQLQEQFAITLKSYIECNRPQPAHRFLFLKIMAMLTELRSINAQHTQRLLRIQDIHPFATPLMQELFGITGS
Sequence of PXR:RXRa (P19793 whole entry, chain 2 of 2): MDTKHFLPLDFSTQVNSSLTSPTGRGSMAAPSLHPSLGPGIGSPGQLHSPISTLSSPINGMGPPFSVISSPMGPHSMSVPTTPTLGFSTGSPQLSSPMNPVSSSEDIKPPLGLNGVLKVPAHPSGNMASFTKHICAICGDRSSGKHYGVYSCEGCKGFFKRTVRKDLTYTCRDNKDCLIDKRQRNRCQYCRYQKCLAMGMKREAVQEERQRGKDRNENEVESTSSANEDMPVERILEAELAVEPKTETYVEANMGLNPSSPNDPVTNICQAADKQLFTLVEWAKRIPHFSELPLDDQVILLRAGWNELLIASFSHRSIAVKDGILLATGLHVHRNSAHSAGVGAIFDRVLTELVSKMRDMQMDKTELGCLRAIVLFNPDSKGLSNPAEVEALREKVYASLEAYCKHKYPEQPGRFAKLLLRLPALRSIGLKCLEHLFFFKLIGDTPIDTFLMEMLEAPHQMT
In the case of B1, the binding signal is 0.38 PBM z-score against 500 random probes. As to B2, the binding signal was 0.31 PBM z-score against 500 random probes. Take B3: the binding signal is 0.24 PBM z-score against 500 random probes. Turning to B4, the binding signal was -0.7 PBM z-score against 500 random probes.

In the case of B5, the binding signal is -0.32 PBM z-score against 500 random probes. With B6, the binding signal is -0.54 PBM z-score against 500 random probes. For B7, the binding signal was 0.14 PBM z-score against 500 random probes.

As to B8, the binding signal was 0.34 PBM z-score against 500 random probes. As for B9, the binding signal is -0.05 PBM z-score against 500 random probes. For the molecule B10, the binding signal is 0.25 PBM z-score against 500 random probes. On the same count and under the same terms, next, B11: 0.44 PBM z-score against 500 random probes; B12: -0.01 PBM z-score against 500 random probes.

For the molecule B13, the binding signal was -0.42 PBM z-score against 500 random probes.

Take B14: the binding signal is 3 PBM z-score against 500 random probes. As to B15, the binding signal was -0.46 PBM z-score against 500 random probes.

As for B16, the binding signal is 0.26 PBM z-score against 500 random probes. In the case of B17, the binding signal is 3.03 PBM z-score against 500 random probes. As to B18, the binding signal is 0.13 PBM z-score against 500 random probes. On to B19, for which the binding signal was 0.48 PBM z-score against 500 random probes.

For the molecule B20, the binding signal was -0.41 PBM z-score against 500 random probes. Consider B21, for which the binding signal is 0.4 PBM z-score against 500 random probes. Still for that read-out and setting: next, B22: -0.18 PBM z-score against 500 random probes. For the molecule B23, the binding signal was -0.24 PBM z-score against 500 random probes. The same measure, in the same setting: next, B24: 0.44 PBM z-score against 500 random probes; B25: 0.08 PBM z-score against 500 random probes. Take B26: the binding signal was -0.13 PBM z-score against 500 random probes. As to B27, the binding signal was -0.5 PBM z-score against 500 random probes. Regarding B28, the binding signal was 0.34 PBM z-score against 500 random probes. As to B29, the binding signal was 0.28 PBM z-score against 500 random probes. On to B30, for which the binding signal is 0.48 PBM z-score against 500 random probes.

The target in a further data set is PPARa:RXRa (Homo sapiens, UniProt Q07869;P19793 full;full). The description is as above. The note with it: tags: GST kept;His cleaved; copies: 1;1; label: surface-attached array probe. An outline of the steps: as §1
Sequence of PPARa:RXRa (Q07869 whole entry, chain 1 of 2): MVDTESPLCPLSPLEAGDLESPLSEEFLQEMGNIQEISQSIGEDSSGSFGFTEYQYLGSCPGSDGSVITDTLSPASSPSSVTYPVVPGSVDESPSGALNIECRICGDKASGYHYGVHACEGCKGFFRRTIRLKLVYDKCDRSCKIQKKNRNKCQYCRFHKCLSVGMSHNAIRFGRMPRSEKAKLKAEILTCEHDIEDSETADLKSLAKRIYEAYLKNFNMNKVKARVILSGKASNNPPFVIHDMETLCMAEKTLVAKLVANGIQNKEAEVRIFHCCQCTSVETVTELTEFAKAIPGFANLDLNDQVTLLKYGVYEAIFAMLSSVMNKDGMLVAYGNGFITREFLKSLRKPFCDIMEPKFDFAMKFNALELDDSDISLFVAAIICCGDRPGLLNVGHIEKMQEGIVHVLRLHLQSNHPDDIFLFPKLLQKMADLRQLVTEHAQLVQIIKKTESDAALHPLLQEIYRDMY
Sequence of PPARa:RXRa (P19793 whole entry, chain 2 of 2): as the sequence (P19793 whole entry, chain 2 of 2) above
For the molecule B10, the binding signal was 0.48 PBM z-score against 500 random probes. For B14, the binding signal is 3.27 PBM z-score against 500 random probes.
